In the supplement of paper PMC10567573:

B1: NEK8 (parent)
chain: VTIKHVACGDFFTACLTDRGIIMT
B2: FUNDC2 (parent)
chain: YIKVDWQRVEKDMKKAKEQLKIRK

Variants of: B1
Experiment: protein stability index of a GFP-peptide fusion (GPS, HEK-293T) (PSI 1-6); higher = more stable
Conditions: c terminus: a fixed tail appended
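Also: lentivirally expressed fusions sorted by FACS into six bins by GFP to DsRed ratio, PSI derived from sequencing read proportions per bin multiplied by bin number.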

Protein stability index: each site, then its substitutions
V6: A 2.86 | S 2.55 | D 1.35 | Y 1.72 | R 3.07 | G 2.57 | N 3.92 | H 2.85 | T 2.61 | W 4.09 | K 2.63 | E 3.14 | P 4.25 | I 3.76 | F 2.71 | L 2.85
K4: V 1.74 | L 3.2 | H 2.81 | S 2.57 | Y 2.75 | F 2.88 | P 2.13 | A 4.56 | I 2.27 | N 2.03 | R 2.47 | G 3.43 | C 3.59 | E 1.58 | D 2.87 | M 1.33 | T 2.17 | W 3.87
C8: E 3.57 | A 3.3 | N 3.4 | R 3.18 | L 3.14 | Y 3.47 | I 2.51 | W 2.41 | T 2.44 | V 2.48 | Q 3.4 | P 2.4 | F 2.28 | D 3.33
H5: M 5.14 | S 3.48 | R 3.65 | K 1.19 | W 2.46 | D 3.02 | L 1.99 | F 2.88 | T 3.55 | I 4.16 | P 3.52 | C 2.12
T2: S 2.88 | I 2.48 | F 3.64 | R 2.24 | P 3.12 | W 2.38 | G 3.03 | K 2.06 | E 2.31 | C 2 | Y 3.11 | D 2.1 | M 3.25
D10: N 1.59 | I 3.11 | L 2.26 | K 3.54 | M 3.29 | H 3.8 | E 3.23 | C 2.56 | R 2.3
G9: T 3.5 | A 2.32 | R 3.64 | D 3 | H 2.74 | I 3.19 | E 2.66 | K 2.98 | M 3.93 | S 3.21 | C 1.88 | Y 3.79 | F 2.38 | W 3.39
I3: R 2.22 | V 2.27 | A 1.28 | K 1.92 | H 2.67 | S 2.69 | G 2.58 | F 3.2 | E 2.6 | D 3.11 | L 2.32 | Y 2.57 | Q 2.49 | P 2.31 | T 3.18 | N 2.55
V1: C 2.23 | Q 1.59 | Y 3.81 | W 4.31 | T 1.54 | P 1.33 | I 2.71 | N 2.51 | K 1.91 | E 1.45 | F 1.99 | S 3.58 | M 3.97 | A 2.57 | R 2.44 | H 2.87 | G 3.39
A7: K 3.25 | P 1.72 | I 2.61 | Q 3.77 | M 2.95 | E 2.69 | Y 3.2 | L 2.33 | S 1.57 | T 2.88 | D 2.43 | C 1.98

Variants of: B2
Experiment: as above
Conditions: c terminus: a fixed tail appended

Protein stability index, by site and new letter:
A16: W 1.94 | Q 3 | D 1.78 | P 2.13 | R 2.08 | L 1.95 | M 1.85 | V 1.38 | S 1.75 | K 1.83 | I 2.06 | Y 1.98 | H 2.4 | T 1.89 | F 2.16 | C 2.08 | G 1.89 | E 1.43
E18: K 1.84 | Q 1.99 | F 1.65 | N 1.72 | I 2.41 | D 1.44 | V 1.69 | R 1.57 | P 2.48 | W 1.16 | A 1.97 | Y 1.84 | H 2.41 | S 2.46 | M 1.59 | L 2.12
R23: K 2.6 | F 1.57 | D 2.06 | N 3.5 | V 2.26 | H 1.9 | A 2.08 | I 2.79 | S 2.02 | T 2.19 | Q 2.07 | Y 1.67 | M 1.97 | G 1.69 | C 1.57 | L 1.6 | P 1.63 | E 1.76 | W 1.59
L20: I 2.42 | N 1.49 | C 2 | H 1.71 | R 1.6 | K 1.59 | A 2.3 | D 1.77 | W 2.65 | Q 1.42 | Y 1.91 | T 2.62 | V 1.77 | E 2.4 | G 1.89 | S 1.52 | F 4.29 | P 1.95 | M 1.32
K24: S 1.67 | E 2.03 | M 1.31 | T 1.76 | L 2.16 | P 1.6 | V 2.61 | N 2.07 | F 1.52 | W 1.69 | H 2.12 | D 2.02 | A 2.81 | Y 1.38 | G 1.85 | Q 1.31 | R 1.12 | C 2.47
K21: Q 1.62 | I 1.68 | Y 2.5 | M 1.96 | T 1.87 | S 2.22 | V 2.19 | W 2.06 | F 1.69 | H 1.74 | E 2.28 | R 2 | D 1.86 | L 1.71 | C 2.06 | P 1.84 | N 1.91 | G 2.13 | A 1.87
K14: M 1.9 | R 2.12 | P 1.86 | Y 4.38 | T 1.92 | Q 1.72 | W 2.1 | N 1.61 | S 2.03 | V 1.92
Q19: S 2.04 | T 2.8 | H 1.33 | I 1.49 | N 1.81 | D 1.98 | E 2.68 | L 2.43 | F 1.56 | V 1.19 | W 1.79 | K 1.32 | P 1.82 | C 1.43 | Y 1.8 | A 1.86 | M 2.57 | R 1.33
K17: I 1.71 | M 2.83 | D 1.67 | H 1.94 | N 1.95 | E 2.15 | F 2.62 | W 1.66 | P 1.79 | T 1.62 | R 2.27 | L 2.21 | S 2.62 | C 2.19 | A 1.64 | V 1.64 | G 2.69 | Q 1.65 | Y 2.37
K15: E 1.55 | I 2.01 | G 1.89 | F 1.42 | R 1.92 | P 1.72 | Q 2.5 | S 1.65 | D 2.05 | A 1.78 | T 2.11 | M 1.79 | W 1.94 | Y 2.14 | V 2.39 | N 1.88 | H 1.44 | C 2.35 | L 2.19
I22: A 1.21 | C 1.47 | W 2.11 | E 2.65 | L 2.12 | M 1.97 | K 2.25 | P 1.49 | R 1.29 | N 1.98 | D 1.92 | Q 2.51 | H 1.88 | F 2.12 | T 1.57 | G 1.83 | Y 1.88 | S 2.01
